We go through one substance from patent US20250025535A1, “A COMPOSITION COMPRISING NANOSIZED ACTIVE PHARMACEUTICAL INGREDIENT” (NANOFORM FINLAND OYJ, priority 2021, published 2025).

The data set is described as follows: Sedimentation of insulin suspension in fish oil. The data set is classed as physicochemical. Conditions: 10 mg in 1 ml fish oil, room temperature, t=0, 30 min, 60 min, 24 h; compared with bulk insulin. The procedure:
A: t=0 min; B: t=30 min; C: t=60 min; D: t=24 h.
Nanosized insulin or bulk insulin (10 mg, Sigma) was added to 1 ml of fish oil, mixed by vortexing and allowed to stand at room temperature.

Regarding insulin [nanosized insulin], the “sedimentation in fish oil as a function of time” value is on record as “significantly slower”.
